Experimental data reported in US8071348B2, “Protein tyrosine phosphatase substrate-trapping double mutant and uses thereof” (Albert Einstein College of Medicine of Yeshiva University, priority 2002, dated 2011).
Read-outs that look alike come from different tables or passages of the source. [ ]: non-standard residue; d: D form. F2Pmp = N[C@@H](Cc1ccc(C(F)(F)P(=O)(O)O)cc1)C(=O)O

Legend:
[1] = target: T1, EGFR 988-998 peptide DADEpYLIPQQG
T1 chain: DADEXLIPQQG

[2] = test system: Ac-Asp-Ala-Asp-Glu-F2Pmp-Leu-NH2; details: cited from earlier work
EGF receptor = test: Substrate protection: EGF receptor tyrosine phosphorylation in COS1 cells expressing PTP1B forms (anti-pTyr Western blot); type: cell-based, Monkey; details: COS1 cell lysates, anti-pTyr immunoblot (FIG. 4)
Method: FIG. 4 sets forth Western blots (WB) that show the level of tyrosine phosphorylation in the epidermal growth factor receptor (EGFR) upon expression of the wild-type and mutant PTP1Bs (4 μg plasmid/60 mm dish) in COS1 cells. Samples (50 μg total protein) were taken from the lysates of COS1 cells transfected with 4 μg of pJ3H plasmids expressing HA-tagged wild-type PTP1B, D181A, C215S, D181A/Q262A, or D181A/C215S. These samples were loaded into each lane for SDS-PAGE electrophoresis, and transferred onto a nitrocellulose membrane. The proteins on the membrane were first immunoblotted with anti-pTyr HRP conjugate (upper panel). The membrane was then stripped and re-probed with anti-hemagglutinin (anti-HA) HRP conjugate (lower panel).
The hemagglutinin-tagged (HA-tagged) full-length human wild-type PTP1B in pJ3H expression vector was a gift from Dr. Chemoff (30). The HA-tagged PTP1B mutants, C215S, D181A, D181A/C215S, and D181A/Q262A, were generated by PCR reactions, according to the standard procedure of the Quick-Change™ site-directed mutagenesis kit (Stratagene), using pJ3H-HA-PTP1B as a template. All mutations were verified by DNA sequencing.
Monkey kidney COS1 cells (ATCC: CRL-1650) were maintained in Dulbecco's modified Eagle's minimum essential medium (DMEM), supplemented with 10% fetal bovine serum (Life Technologies, Inc.), penicillin (50 units/ml), streptomycin (50 μg/ml), and L-glutamine (2 mM) under a humidified atmosphere containing 5% CO2. In transient transfection experiments, COS1 cells were inoculated at a density of 2×10^5 cells/60-mm dish, and grown overnight in DMEM containing 10% fetal bovine serum. Transfection was performed using LipoTAXI^R according to the manufacturer's recommendations (Stratagene, Cedar Creek, Tex.). Each transfection assay included 4 μg of purified DNA mixed with LipoTAXI^R in a 1:5 DNA:lipid ratio per 60-mm dish of cells. Following transfection, the cells were exchanged to normal culture medium, and maintained for 44 to 48 h at 37° C. and 5% CO2. The efficiency of transfection, as assessed by 5-bromo-4-chloro-3-indolyl-β-D galactoside (X-Gal) staining of pCMV-β-gal-transfected (β-Gal staining kit, Invitrogen) COS cells, was 25%.
The transfected cells (treated with or without EGF) were lysed with “lysis buffer” containing 50 mM Tris-HC1 (pH 7.5), 5 mM EDTA, 150 mM NaCl, 10 mM sodium phosphate, 10 mM sodium fluoride, 5 mM iodoacetic acid, 1 mM benzamidine, 1% Triton X-100, 10 μg/ml leupeptin, and 5 μg/ml Aprotinin. Lysate protein concentration was estimated using Bio-Rad protein assay reagent (Bio-Rad, Hercules, Calif.).
For immunoprecipitation, 1 mg of cell lysate was immunoprecipitated overnight with 30 μl of agarose-conjugated anti-hemagglutinin antibody at 4° C. Immunocomplexes were washed four times with the cell lysis buffer, and boiled for 5 min in SDS-PAGE sample buffer. Proteins in the cell lysate were separated by 8% SDS-PAGE under reducing conditions, according to the method of Laemmli (31), followed by blotting onto nitrocellulose membranes (Protran, Schleicher & Schuell). The nitrocellulose membranes were blocked with 5% non-fat dry milk in Tris-buffered saline/Tween (TBST) buffer (20 mM Tris-HC1, 150 mM NaCl, 0.1% Tween-20; pH 7.6) for 1 h at 25° C.
Thereafter, blots were incubated overnight with primary antibodies diluted in TBST containing 5% non-fat dry milk at 4° C. […]

[3] = Kinetic constants for PTP1B-catalyzed hydrolysis of pNPP; type: biochemical; details: pNPP as substrate
Excerpt: (§1) The catalytic domain of PTP1B (residues 1 to 321) was used for in vitro study. PTP1B mutants, C215S, D181A, and Q262A, were described previously (9, 25, 26). PTP1B double mutants, D181A/C215S and C215S/Q262A, were generated by PCR reactions, according to the standard procedure of the Quick-Change™ site-directed mutagenesis kit (Stratagene), using pT7-7/PTP1B/C215S as a template. PTP1B double mutants, D181A/C215E and D181A/Q262A, were generated by similar PCR procedures, using pT7-7/PTP1B/D181A as a template. The recombinant wild-type and mutant PTP1Bs were expressed in E. coli, and purified to homogeneity as described (25, 27). Protein concentration was determined from absorbance measurement at 280 nm, using an absorbance coefficient of 1.24 for 1 mg/ml PTP1B.
PTP activity was assayed at 25° C. and pH 7.0, in a reaction mixture (0.2 ml) containing pNPP concentrations ranging from 0.2 to 5 Km. The following buffered solution was used for activity measurements: pH 7.0, 50 mM 3,3-dimethylglutarate, 1 mM EDTA; the ionic strength was 0.15 M, as adjusted by addition of NaCl. Initial rate measurements for the enzyme-catalyzed hydrolysis of pNPP were conducted as previously described (26). Michaelis-Menten kinetic parameters were determined from a direct fit of the data to the Michaelis-Menten equation, using the nonlinear regression program, KINETASYST (Intellikinetics, State College, Pa.).

[4] = target: T2, EGFR^988-998 peptide, DADEpYLIPQQG (Homo sapiens, UniProt P18031, D181A); test: Kinetic constants for PTP1B-catalyzed hydrolysis of pTyr-containing EGFR988-998 peptide; type: biochemical; details: EGFR988-998 peptide as substrate
T2 construct: The catalytic domain of PTP1B (residues 1 to 321) was used for in vitro study; made in house; host or cells: E. coli (pT7-7 plasmids)
T2 sequence (P18031 1-321 D181A): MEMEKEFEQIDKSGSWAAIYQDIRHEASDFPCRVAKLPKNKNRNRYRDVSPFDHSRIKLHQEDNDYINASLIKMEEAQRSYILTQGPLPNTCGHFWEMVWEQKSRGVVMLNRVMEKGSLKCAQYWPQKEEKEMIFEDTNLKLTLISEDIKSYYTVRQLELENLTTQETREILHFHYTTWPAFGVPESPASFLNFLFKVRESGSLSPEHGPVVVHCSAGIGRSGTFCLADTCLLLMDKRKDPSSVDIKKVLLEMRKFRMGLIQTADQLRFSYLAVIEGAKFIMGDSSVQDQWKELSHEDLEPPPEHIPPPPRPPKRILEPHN
Excerpt: as §1
(§2) All assays were performed at 25° C. in buffer (pH 7.0, ionic strength=0.15 M) containing 50 mM 3,3-dimethylglutarate and 1 mM EDTA. A continuous spectrophotometric assay, previously described (28), was employed to determine kcat and Km for the pTyr-containing peptides. The dephosphorylation reaction was monitored by either an increase in absorbance at 282 nm, or an increase in fluorescence at 305 nm. Fluorometric and absorbance determinations were performed on a Perkin-Elmer LS50B fluorometer and a Perkin-Elmer Lambda 14 spectrophotometer, respectively. The instruments were equipped with a water-jacketed cell holder, permitting maintenance of the reaction mixture at the desired temperature (25° C.).

[5] = test system: EGFR^988-998 peptide, DADEpYLIPQQG; test: as above; type: biochemical; details: EGFR988-998 peptide as substrate
Excerpt: as §1, §2

[6] = target: Ac-Asp-Ala-Asp-Glu-F2Pmp-Leu-NH2; test: Isothermal titration calorimetry, binding of PTP1B and mutants to F2Pmp peptide; details: ITC, 25° C. and pH 7.0; data from this study
Method: FIG. 3 portrays calorimetric isothermal titration for the reaction of peptide Ac-Asp-Ala-Asp-Glu-F2Pmp-Leu-NH2 with PTP1B/D181A/Q262A. The upper graph depicts raw data for thirty 8-μl injections of the peptide (0.5 mM stock) into the isothermal cell containing 32 μM PTP1B/D181A/Q262A, at 4-min intervals and 25° C. Both the protein and the peptide were in 50 mM 3,3-dimethylglutarate buffer (I=0.15 M, pH 7.0) containing 1 mM DTT. The lower graph depicts an integration curve showing experimental points that were obtained by integration of the above peaks as plotted against the molar ratio of the peptide to PTP1B/D181A/Q262A within the reaction cell. The solid line corresponds to the best fit to the data according to the nonlinear, least-squares regression algorithm, ORIGIN (29).
All isothermal titration calorimetry experiments were performed using an MCS Isothermal Titration Calorimetry System from Microcal Inc. (Northampton, Mass.). […] The ionic strength of the buffer was adjusted to 0.15 M by addition of NaCl. Protein concentration in the calorimeter cell was 27-85 μM, while the ligand concentration in the syringe was 0.37-1 mM.
(§3) The PTP1B samples used in the isothermal titration calorimetry experiments were dialyzed completely against buffer. High-concentration stock solutions were prepared for ligands with distilled water, and adjusted to pH 7.0. Stock was diluted at least 26-fold with 50 mM 3,3-dimethylglutarate buffer before titration. Protein dilution during titration was determined by titration of buffer into the protein solution. […] The heat of ligand dilution was corrected by subtracting the average heat of injection after saturation.
The binding data were analyzed using ORIGIN software (29). Binding constant, K, and enthalpy change, ΔH, were used to calculate free energy change, ΔG, and entropy change, ΔS, according to equation [1]: −RTLnK=ΔG=ΔH−TΔS [1] where R is the gas constant and T is the absolute temperature.

[7] = target: T3, Ac-Asp-Ala-Asp-Glu-F2Pmp-Leu-NH2; test: ITC, 25 C, pH 7.0
T3 construct: Synthetic hexapeptide printed in three-letter code; also called F2Pmp-containing peptide; non-hydrolyzable substrate analog
T3 peptide: Ac-DADE[F2Pmp]L-NH2
Method: (§4) All isothermal titration calorimetry experiments were performed using an MCS Isothermal Titration Calorimetry System from Microcal Inc. (Northampton, Mass.). Experiments at pH 7.0 were conducted at 25° C., in 50 mM 3,3-dimethylglutarate buffer containing 1 mM DTT. The ionic strength of the buffer was adjusted to 0.15 M by addition of NaCl. Protein concentration in the calorimeter cell was 27-85 µM, while the ligand concentration in the syringe was 0.37-1 mM.
(§5) A typical titration curve and binding isotherm for the binding of D181A/Q262A to Ac-Asp-Ala-Asp-Glu-F_2Pmp-Leu-NH_2 is shown in FIG. 3. From curve-fitting of the binding isotherms, the stoichiometry for the binding of the peptide to D181A/Q262A was determined to be 1:1.

[8] = target: T3, Ac-Asp-Ala-Asp-Glu-F2Pmp-Leu-NH2; test: ITC, 25 C, pH 7.0
Method: as §4
as §3, with “Stock was diluted at least 26-fold with 50 mM 3,3-dimethylglutarate buffer before titration.” left out
as §5

B1: PTP1B/D181A, catalytic domain (residues 1 to 321) (protein)
chain: MEMEKEFEQIDKSGSWAAIYQDIRHEASDFPCRVAKLPKNKNRNRYRDVSPFDHSRIKLHQEDNDYINASLIKMEEAQRSYILTQGPLPNTCGHFWEMVWEQKSRGVVMLNRVMEKGSLKCAQYWPQKEEKEMIFEDTNLKLTLISEDIKSYYTVRQLELENLTTQETREILHFHYTTWPAFGVPESPASFLNFLFKVRESGSLSPEHGPVVVHCSAGIGRSGTFCLADTCLLLMDKRKDPSSVDIKKVLLEMRKFRMGLIQTADQLRFSYLAVIEGAKFIMGDSSVQDQWKELSHEDLEPPPEHIPPPPRPPKRILEPHN
In the case of B1, the Km (hydrolysis of the EGFR 988-998 peptide, 25 C, pH 7.0) [1] is listed as 56 µM, the “binding, fold tighter than the C215S mutant” value ([2]; F2Pmp peptide, previously determined (24)) is listed as 5 fold and the Kd ([2]; ITC, 25° C. and pH 7.0, data from (24)) is listed as 40 ± 10 nM. For the same molecule, the “level of pTyr in the EGF receptor / enhancement of EGF receptor phosphorylation” value (EGF receptor) was “higher in cells expressing the D181A, rather than the C215S, mutant”, the “Km, fold lower than wild-type enzyme” value [3] was 30 fold and the “kcat, fold lower than wild-type enzyme” value [3] was 320 fold. The Km ([3]; 25° C. and pH 7.0) was 80 ± 30 µM, the kcat ([3]; 25° C. and pH 7.0) was “(3.1 ± 0.3) × 10^−2 s^−1” and the “Km, fold higher than PTP1B (wild-type)” value [4] was 22 fold. For the same molecule, the “kcat, fold lower than PTP1B (wild-type)” value [4] was 920 fold, the Km ([5]; 25° C. and pH 7.0) was 56 ± 2 µM and the kcat ([5]; 25° C. and pH 7.0) was “(6.5 ± 0.2) × 10^−2 s^−”.

B2: PTP1B/D181A/C215E, catalytic domain (residues 1 to 321) (enzyme, human, UniProt P18031 1-321, looked up)
chain: MEMEKEFEQIDKSGSWAAIYQDIRHEASDFPCRVAKLPKNKNRNRYRDVSPFDHSRIKLHQEDNDYINASLIKMEEAQRSYILTQGPLPNTCGHFWEMVWEQKSRGVVMLNRVMEKGSLKCAQYWPQKEEKEMIFEDTNLKLTLISEDIKSYYTVRQLELENLTTQETREILHFHYTTWPAFGVPESPASFLNFLFKVRESGSLSPEHGPVVVHESAGIGRSGTFCLADTCLLLMDKRKDPSSVDIKKVLLEMRKFRMGLIQTADQLRFSYLAVIEGAKFIMGDSSVQDQWKELSHEDLEPPPEHIPPPPRPPKRILEPHN
notes: range 1-321; Used in vitro (ITC)
For B2, the Kd [6] was 1300 nM, the “fold lower affinity than the C215S mutant” value [7] was 7 fold and the “fold lower affinity than the D181A mutant” value [7] was 32 fold. The TΔS [8] was -20.4 kcal/mol, the ΔG [8] was -8 kcal/mol and the ΔH [8] was -28.4 kcal/mol. The phosphatase activity [5] was “no measurable activities”.
